Assays:
[1] = molecular target: RhoA with bound [3H]-GDP or GTPγ[35S] (UniProt P61586 1-193, limits assumed); test: cell-based or functional assay
EE-K-Ras = molecular target: T1, EE-K-Ras (UniProt P01116-2 1-188); test: complex formation assay; format for K-Ras not described
T1 construct: Named EE-K-Ras only for the GDP dissociation assay; the result on physical association says 'K-Ras' and its format is not described; not shown: EE (glu-glu) tag

GST-Rac1 = GST-Rac1 (UniProt P63000 1-192); test: pull-down on GSH agarose (nucleotide depleted or GDP state), anti glu-glu immunoblot
Description: (§1) Comparison of p115 stimulated GDP and GTPγ`S dissociation from RhoA. Increasing amounts of glu-glu tagged •N-p115 (0, 0.02, 0.075, 0.02, 0.4, 1.0 μM) were incubated with 0.3 μM RhoA with bound [³H]-GDP or GTP`[³⁵S] for 10 minutes, and the amount of nucleotide remaining bound to RhoA was determined as described in Hart et al. (39). Specificity of •N-p115 stimulated GDP dissociation. Increasing amounts of •N-p115 (0, 0.25, 0.5, 1.0, 2.0 μM) were incubated for 5 minutes with 2.0 μM GST-RhoA, GST-Rac1, GST-Cdc42Hs or EE-K-Ras prebound with [³H]-GDP and analysed as described in A. Western analysis of complex formation. One μg of glu-glu tagged •N-p115 was incubated with 4 μg of the nucleotide depleted or GDP states of baculovirus expressed GST-Rho, GST-Rac or GST-Cdc42Hs coupled to GSH agarose as described in Hart et al. (18). Proteins, which were recovered on the washed GSH beads, were analsed by SDS-PAGE and immunoblotting. The blot was probed with an affinity purified anti glu-glu monoclonal antibody. 100 ngs of glu-glu tagged •N-p115 was used as a positive control. Kinetic analysis of p115-catalyzed GEF activity on RhoA. […] The level of GTP incorporated onto Rho/min/pmol of •N-p115 was measured as GST-RhoA[`³²P]GTP bound to nitrocellulose filters.

GST-Cdc42Hs = molecular target: T2, GST-Cdc42Hs (UniProt P60953 1-191); test: as above
T2 construct: Baculovirus expressed; not shown: glutathione S-transferase (GST) fusion partner
T2 sequence (P60953 whole entry, the tested form may be a part): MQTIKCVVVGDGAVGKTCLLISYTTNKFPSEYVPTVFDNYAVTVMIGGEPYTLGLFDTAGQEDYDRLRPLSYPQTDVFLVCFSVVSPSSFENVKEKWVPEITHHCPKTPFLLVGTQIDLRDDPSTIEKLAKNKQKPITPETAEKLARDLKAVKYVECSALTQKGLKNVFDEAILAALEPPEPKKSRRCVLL
Description: as §1

Sequence of RhoA with bound [3H]-GDP or GTPγ[35S] (P61586 whole entry): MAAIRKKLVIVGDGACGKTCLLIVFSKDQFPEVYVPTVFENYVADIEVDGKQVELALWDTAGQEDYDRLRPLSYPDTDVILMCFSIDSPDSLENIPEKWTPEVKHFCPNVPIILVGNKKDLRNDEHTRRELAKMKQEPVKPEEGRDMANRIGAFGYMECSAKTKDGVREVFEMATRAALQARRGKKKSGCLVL

B1: glu-glu tagged •N-p115 (amino acids 249-912 of human p115 Rho-GEF) (other, not shown: small tags and cut ends)
chain: VMGNRRSDDPPKTKKGLSSILDAARWNRGEPQVPDFRHLKAEVDAEKPGATDRKGGVGMPSRDRNIGAPGQDTPGVSLHPLSLDSPDREPGADAPLELGDSSPQGPMSLESLAPPESTDEGAETESPEPGDEGEPGRSGLELEPEEPPGWRELVPPDTLHSLPKSQVKRQEVISELLVTEAAHVRMLRVLHDLFFQPMAECLFFPLEELQNIFPSLDELIEVHSLFLDRLMKRRQESGYLIEEIGDVLLARFDGAEGSWFQKISSRFCSRQSFALEQLKAKQRKDPRFCAFVQEAESRPRCRRLQLKDMIPTEMQRLTKYPLLLQSIGQNTEEPTEREKVELAAECCREILHHVNQAVRDMEDLLRLKDYQRRLDLSHLRQSSDPMLSEFKNLDITKKKLVHEGPLTWRVTKDKAVEVHVLLLDDLLLLLQRQDERLLLKSHSRTLTPTPDGKTMLRPVLRLTSAMTREVATDHKAFYVLFTWDQEAQIYELVAQTVSERKNWCALITETAGSLKVPAPASRPKPRPRPSSTREPLLSSSENGNGGRETSPADARTERILSDLLPFCRPGPEGQLAATALRKVLSLKQLLFPAEEDNGAGPPRDGDGVPGGGPLSPARTQEIQENLLSLEETMKQLEELEEEFCRLRPLLSQLGGNSVPQPGCT
notes: Expressed in the baculovirus/Sf9 system and purified on anti-glu-glu Sepharose; also called N-terminal truncated version of p115
- stimulation of the intrinsic dissociation of GDP from RhoA [1]: 10 fold
- binding result (EE-K-Ras): no binding
- binding result (GST-Rac1): no binding
- binding result (GST-Cdc42Hs): no binding

From patent US20020192785A1 (ONYX PHARMACEUTICALS, published 2002)
